Laboratory results as given in US20200087414A1.
“And” between values parts separate entries of the source, which are not always exact repeats. Equal values may be shown once.

Experiments:
[1] = biological target: FcgammaRIIIA (CD16a), F158 allotype (UniProt P08637); experiment: SPR
[2] = biological target: FcgammaRIIB (CD32b), Y163 allotype (UniProt P31994); experiment: SPR
[3] = biological target: neonatal Fc receptor (FcRn) (UniProt P55899); experiment: SPR pH 6.0, Ab captured on goat anti-human IgG, FcRn flowed

Sequence of FcgammaRIIB (CD32b), Y163 allotype (P31994 43-217 limits assumed): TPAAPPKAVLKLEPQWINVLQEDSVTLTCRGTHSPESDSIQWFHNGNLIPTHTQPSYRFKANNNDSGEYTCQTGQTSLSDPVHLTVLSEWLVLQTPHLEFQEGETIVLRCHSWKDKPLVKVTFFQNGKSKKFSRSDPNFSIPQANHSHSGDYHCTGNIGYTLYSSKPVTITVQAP
Sequence of FcgammaRIIIA (CD16a), F158 allotype (P08637 17-208 limits assumed): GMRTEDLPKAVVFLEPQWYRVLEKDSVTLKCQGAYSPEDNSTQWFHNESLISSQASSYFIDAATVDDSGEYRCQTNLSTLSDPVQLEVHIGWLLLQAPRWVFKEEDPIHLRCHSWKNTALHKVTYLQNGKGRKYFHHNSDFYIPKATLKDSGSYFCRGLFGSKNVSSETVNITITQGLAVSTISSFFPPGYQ

Row | Substance | Kd [1] | Kd [2] [nM] | Kd [3] [nM]
1 | F405A_Y407V / T366L_T394W (antibody) | 480 nM | – | –
2 | Y349C_D399C_F405A_Y407V / S354C_T366L_K392C_T394W (antibody) | 630 nM | – | –
3 | Y349C_F405A_Y407V / S354C_T366L_T394W (antibody) | 580 nM | 1200 | –
4 | T350V_F405A_Y407V / T350V_T366L_K392M_T394W (antibody) | – | 1000 | –
5 | Y349C_T350V_L351Y_S400E_F405A_Y407V / T350V_S354C_T366L_N390R_K392M_T394W (antibody) | 420 nM | 950 | –
6 | Herceptin WT (wild-type IgG1 anti-HER-2/neu antibody) | – | 1700 | 3700
7 | T350V_L351Y_S400E_F405A_Y407V / T350V_T366L_N390R_K392L_T394W (antibody) | – | 910 | –
8 | AZ3002 (A: T350V/L351Y/F405A/Y407V, B: T350V/T366L/K392M/T394W) (antibody) | 460 nM | 1200 | 4300
9 | AZ138 (A: F405A/Y407V, B: T366L/K392M/T394W) (antibody) | 460 nM | – | –
10 | Q347R_T350V_L351Y_S400E_F405A_Y407V / T350V_K360E_T366L_N390R_K392M_T394W (antibody) | 420 nM | 920 | –
11 | T350V_S400E_F405A_Y407V / T350V_T366L_N390R_K392M_T394W (antibody) | 450 nM | 1000 | –
12 | AZ3003 (A: T350V/L351Y/F405A/Y407V, B: T350V/T366L/K392L/T394W) (antibody) | – | 990 | 3900
13 | Y349C_T350V_F405A_Y407V / T350V_S354C_T366L_K392M_T394W (antibody) | 460 nM | – | 4100
14 | AZ133 (A: L351Y/F405A/Y407V, B: T366L/K392M/T394W) (antibody) | 420 nM | – | 5000
15 | D399C_F405A_Y407V / T366L_K392C_T394W (antibody) | 510 nM | 1200 | –
16 | T350V_L351Y_S400R_F405A_Y407V / T350V_T366L_N390D_K392M_T394W (antibody) | – | 940 | –

Second part, the substance after the results:

Row | Kd [1] | Kd [2] [nM] | Kd [3] [nM] | Substance
17 | 420 nM | 890 | – | T350V_L351Y_S400R_F405A_Y407V / T350V_T366L_N390E_K392M_T394W (antibody)
18 | 420 nM | 830 | – | T350V_L351Y_S400E_F405S_Y407V / T350V_T366L_N390R_K392M_T394W (antibody)
19 | 450 nM and 420 nM | 900 | 5000 | T350V_L351Y_S400E_F405A_Y407V / T350V_T366L_N390R_K392M_T394W (antibody)
20 | – | 890 | – | T350V_L351Y_S400R_F405A_Y407V / T350V_T366L_K392M_T394W (antibody)
21 | – | 710 | – | T350V_L351Y_S400E_F405A_Y407V / T350V_T366L_N390R_K392F_T394W (antibody)
22 | – | 670 | – | T350V_L351Y_S400E_F405T_Y407V / T350V_T366L_N390R_K392M_T394W (antibody)
23 | – | 710 | – | T350V_L351Y_S400E_F405A_Y407V / T350V_L351Y_T366L_N390R_K392M_T394W (antibody)
